The source of these data is patent publication US20170024512A1.

This experiment addresses RecBCD (endogenous exonuclease of the E. coli cell-free extract) (E. coli) (UniProt P08394). The experiment is described as follows: cell-based or functional assay.
Chain of UniProt P08394 (P08394 2-1180 limits assumed, chain 1 of 3): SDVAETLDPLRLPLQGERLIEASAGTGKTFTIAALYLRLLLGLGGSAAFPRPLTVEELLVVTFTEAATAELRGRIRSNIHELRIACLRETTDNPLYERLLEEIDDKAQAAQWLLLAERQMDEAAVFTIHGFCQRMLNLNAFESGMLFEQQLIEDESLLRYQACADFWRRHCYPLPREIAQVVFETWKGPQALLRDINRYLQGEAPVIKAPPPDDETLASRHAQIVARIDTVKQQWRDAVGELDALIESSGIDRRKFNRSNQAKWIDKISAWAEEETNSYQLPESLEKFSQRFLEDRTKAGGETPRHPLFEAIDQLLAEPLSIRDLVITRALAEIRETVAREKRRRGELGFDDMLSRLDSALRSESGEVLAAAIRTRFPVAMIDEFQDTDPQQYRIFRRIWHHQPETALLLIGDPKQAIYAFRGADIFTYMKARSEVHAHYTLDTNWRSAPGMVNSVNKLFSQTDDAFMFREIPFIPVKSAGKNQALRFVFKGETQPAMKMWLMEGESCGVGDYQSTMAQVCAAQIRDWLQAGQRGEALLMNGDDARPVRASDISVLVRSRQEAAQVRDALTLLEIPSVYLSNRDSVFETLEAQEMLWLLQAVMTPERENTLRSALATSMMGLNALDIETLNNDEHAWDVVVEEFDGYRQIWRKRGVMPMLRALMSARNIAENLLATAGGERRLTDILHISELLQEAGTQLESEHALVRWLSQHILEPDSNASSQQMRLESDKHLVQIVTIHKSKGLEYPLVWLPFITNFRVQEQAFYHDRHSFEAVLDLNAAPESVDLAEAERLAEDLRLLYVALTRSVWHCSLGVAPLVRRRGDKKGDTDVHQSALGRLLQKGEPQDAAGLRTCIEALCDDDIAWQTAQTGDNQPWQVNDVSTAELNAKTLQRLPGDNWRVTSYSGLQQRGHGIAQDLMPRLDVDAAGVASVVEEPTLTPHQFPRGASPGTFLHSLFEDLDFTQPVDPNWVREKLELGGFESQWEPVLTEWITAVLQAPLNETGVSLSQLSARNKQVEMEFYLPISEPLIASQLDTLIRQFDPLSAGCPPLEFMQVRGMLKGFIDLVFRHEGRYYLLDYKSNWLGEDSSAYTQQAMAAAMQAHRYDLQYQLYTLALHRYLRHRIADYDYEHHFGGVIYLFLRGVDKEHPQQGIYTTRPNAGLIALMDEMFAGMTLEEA
Chain of UniProt P08394 (P07648 whole entry, chain 2 of 3, further chain): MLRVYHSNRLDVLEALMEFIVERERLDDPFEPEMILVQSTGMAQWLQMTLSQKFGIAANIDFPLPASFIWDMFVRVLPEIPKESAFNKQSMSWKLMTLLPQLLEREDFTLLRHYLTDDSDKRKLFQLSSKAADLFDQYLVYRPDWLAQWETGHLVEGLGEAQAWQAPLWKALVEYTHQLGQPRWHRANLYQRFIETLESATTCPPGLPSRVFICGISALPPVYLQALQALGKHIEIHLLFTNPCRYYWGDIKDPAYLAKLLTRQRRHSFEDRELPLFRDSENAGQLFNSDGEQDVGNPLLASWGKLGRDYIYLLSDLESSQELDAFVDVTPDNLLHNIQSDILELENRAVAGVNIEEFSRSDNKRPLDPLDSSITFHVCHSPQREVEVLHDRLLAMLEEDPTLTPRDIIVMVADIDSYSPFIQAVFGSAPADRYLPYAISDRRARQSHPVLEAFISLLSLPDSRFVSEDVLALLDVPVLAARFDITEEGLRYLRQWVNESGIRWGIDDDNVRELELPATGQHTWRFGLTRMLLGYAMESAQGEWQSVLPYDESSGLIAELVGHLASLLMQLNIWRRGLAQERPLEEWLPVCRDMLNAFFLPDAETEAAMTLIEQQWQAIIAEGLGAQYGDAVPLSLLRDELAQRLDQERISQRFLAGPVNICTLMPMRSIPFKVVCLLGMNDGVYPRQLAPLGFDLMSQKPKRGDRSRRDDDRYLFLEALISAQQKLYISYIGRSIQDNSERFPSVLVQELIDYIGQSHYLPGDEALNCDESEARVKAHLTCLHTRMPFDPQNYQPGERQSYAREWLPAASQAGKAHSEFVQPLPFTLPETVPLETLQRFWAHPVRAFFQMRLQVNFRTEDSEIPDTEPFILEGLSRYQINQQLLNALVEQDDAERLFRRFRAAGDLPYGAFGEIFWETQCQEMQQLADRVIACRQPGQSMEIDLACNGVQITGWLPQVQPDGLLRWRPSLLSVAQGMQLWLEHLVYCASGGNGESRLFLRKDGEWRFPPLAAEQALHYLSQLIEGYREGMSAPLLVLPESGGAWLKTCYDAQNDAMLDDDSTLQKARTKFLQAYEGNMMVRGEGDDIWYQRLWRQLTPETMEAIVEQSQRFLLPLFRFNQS
Chain of UniProt P08394 (P04993 whole entry, chain 3 of 3, further chain): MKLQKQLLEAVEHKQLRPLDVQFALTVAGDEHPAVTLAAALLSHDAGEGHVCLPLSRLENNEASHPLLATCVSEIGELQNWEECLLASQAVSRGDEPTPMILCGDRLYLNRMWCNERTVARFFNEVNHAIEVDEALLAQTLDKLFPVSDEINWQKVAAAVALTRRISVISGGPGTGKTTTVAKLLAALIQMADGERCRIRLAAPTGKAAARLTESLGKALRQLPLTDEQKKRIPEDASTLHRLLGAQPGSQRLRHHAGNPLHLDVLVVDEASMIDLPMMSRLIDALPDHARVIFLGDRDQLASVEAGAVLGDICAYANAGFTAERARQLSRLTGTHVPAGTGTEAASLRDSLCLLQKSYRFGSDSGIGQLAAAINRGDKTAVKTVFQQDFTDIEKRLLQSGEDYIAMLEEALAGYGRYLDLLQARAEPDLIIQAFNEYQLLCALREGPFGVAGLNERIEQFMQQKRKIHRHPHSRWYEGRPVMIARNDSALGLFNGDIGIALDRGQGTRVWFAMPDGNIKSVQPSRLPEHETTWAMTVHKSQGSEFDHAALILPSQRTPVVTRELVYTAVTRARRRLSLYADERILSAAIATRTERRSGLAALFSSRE

“gamS protein (GamS, a truncated form of lambda gam) (from UniProt P03702 1-98)” displayed a protection of linear DNA from degradation in TX-TL (endpoint deGFP expression from 2 nM linear DNA); gamS working concentration of 3.5 µM.
